From patent publication US20230051847A1 (Johns Hopkins, published 2023)

molecular target: p53^WT/HLA-A*02:01 pHLA (human); experiment: flow cytometry: scFv phage supernatant on peptide-pulsed T2 cells (HLA-A2+), median fluorescence intensity
Experimental: Cells were stained with 50 μL of phage supernatant per 50 μL of cells, washed and stained with rabbit anti-M13 antibody, then washed and stained with anti-Rabbit-PE antibody. Cells were stained with a live/dead Near-infrared (IR) dye, washed, and analyzed by an iQue Screener (IntelliCyt, Albuquerque, N. Mex.).
The pulsed cells were pelleted, washed once in cold staining buffer (PBS containing 0.5% BSA, 2 mM EDTA, and 0.1% sodium azide), and resuspended in 50 μL of stain buffer. Phage staining was performed on ice with 50 μL monoclonal phage supernatant for 1 hour, followed by one 800 μL wash in cold staining buffer. Cells were then stained with 1 μg of rabbit anti-M13 antibody (Novus Biologics, Centennial, Colo.) in 100 μL total volume on ice for 1 hour and washed once with 800 μL of cold staining buffer. Cells were then stained with 5 μL anti-rabbit-PE (Biolegend) on ice for 1 hour in 100 μL total volume, followed by incubation with 200 μL LIVE/DEAD Fixable Near-IR Dead Cell Stain (Thermo Fisher) for 10 minutes at room temperature per manufacturer's instructions. Cells were washed once in 800 μL of staining buffer. Stained cells were analyzed using an iQue Screener (IntelliCyt, Albuquerque, N. Mex.).

| Binder | binding result |
| --- | --- |
| p53_R175H_A2_cl16 (scFv) scFv: DIQMTQSPSSLSASVGDRVTITCRASQDVNTAVAWYQQKPGKAPKLLIYSASFLYSGVPSRFSGSRSGTDFTLTITSLQPEDFATYYCQQQWSSPDTFGQGTKVEIKRTGGGSGGGGSGGGASEVQLVESGGGLVQPGGSLRLSCAASGFNLSYYDMHWVRQAPGKGLEWVALIYYGSGYTYYADSVKGRFTISADTSKNTAYLQMNSLRAEDTAVYYCSRGSYVSGMDYWGQGTLVTVSS | no binding |
| p53_R175H_A2_cl6 (scFv) scFv: DIQMTQSPSSLSASVGDRVTITCRASQDVNTAVAWYQQKPGKAPKLLIYSASFLYSGVPSRFSGSRSGTDFTLTISSLQPEDFATYYCQQQSSTPVTFGQGTKVEIKRTGGGSGGGGSGGGASEVQLVESGGGLVQPGGSLRLSCAASGFNVYQSDMHWVRQAPGKGLEWVATIWPYSGYTYYADSVKGRFTISADTSKNTAYLQMNSLRAEDTAVYYCSRDGMYAFDYWGQGTLVTVSS | no binding |
| p53_R175H_A2_cl15 (scFv) scFv: DIQMTQSPSSLSASVGDRVTITCRASQDVNTAVAWYQQKPGKAPKLLIYSASFLYSGVPSRFSGSRSGTDFTLTISSLQPEDFATYYCQQSSYYPNTFGQGTKVEIKRTGGGSGGGGSGGGASEVQLVESGGGLVQPGGSLRLSCAASGFNLYQRDMHWVRQAPGKGLEWVAGLLYGSDHTEYADSVKGRFTISADTSKNTAYLQMNSLRAEDTAVYYCSRATYEEAFDYWGQGTLVTVSS | no binding |

molecular target: T1, RAS Q61WT[55-64] pHLA-A1 (human); experiment: flow cytometry: scFv phage supernatant on peptide-pulsed SigM5 cells (HLA-A1+), median fluorescence intensity
T1 construct: also called Q61WT pHLA-A1; H/K/N RAS WT(55-64) peptide on HLA-A1

| Binder | binding result |
| --- | --- |
| H/K/N RAS Q61H_A1_cl3 (scFv) scFv: DIQMTQSPSSLSASVGDRVTITCRASQDVNTAVAWYQQKPGKAPKLLIYSASFLYSGVPSRFSGSRSGTDFTLTISSLQPEDFATYYCQQSIYYPFTFGQGTKVEIKRTGGGSGGGGSGGGASEVQLVESGGGLVQPGGSLRLSCAASGFNLYTSQMHWVRQAPGKGLEWVALVYPGYYVTSYADSVKGRFTISADTSKNTAYLQMNSLRAEDTAVYYCSRGAYYYSSAMDYWGQGTLVTVSS | no binding |
| H/K/N RAS Q61H_A1_cl2 (scFv) scFv: DIQMTQSPSSLSASVGDRVTITCRASQDVNTAVAWYQQKPGKAPKLLIYSASFLYSGVPSRFSGSRSGTDFTLTISSLQPEDFATYYCQQYDYYPFTFGQGTKVEIKRTGGGSGGGGSGGGASEVQLVESGGGLVQPGGSLRLSCAASGFNISYEAMHWVRQAPGKGLEWVALIYPNHGITSYADSVKGRFTISADTSKNTAYLQMNSLRAEDTAVYYCSRYSSSAMDYWGQGTLVTVSS | no binding |
| H/K/N RAS Q61H_A1_cl10 (scFv) scFv: DIQMTQSPSSLSASVGDRVTITCRASQDVNTAVAWYQQKPGKAPKLLIYSASFLYSGVPSRFSGSRSGTDFTLTISSLQPEDFATYYCQQTYYTPVTFGQGTKVEIKRTGGGSGGGGSGGGASEVQLVESGGGLVQPGGSLRLSCAASGFNISHYVMHWVRQAPGKGLEWVADFYPHSDSTYYADSVKGRFTISADTSKNTAYLQMNSLRAEDTAVYYCSRYQSYSFDYWGQGTLVTVSS | no binding |
| H/K/N RAS Q61H_A1_cl4 (scFv) scFv: DIQMTQSPSSLSASVGDRVTITCRASQDVNTAVAWYQQKPGKAPKLLIYSASFLYSGVPSRFSGSRSGTDFTLTISSLQPEDFATYYCQQYDYYPFTFGQGTKVEIKRTGGGSGGGGSGGGASEVQLVESGGGLVQPGGSLRLSCAASGFNVFGYAIHWVRQAPGKGLEWVAEVYPGYDVTSYADSVKGRFTISADTSKNTAYLQMNSLRAEDTAVYYCSRYSWAGAFDYWGQGTLVTVSS | no binding |
